Reference: patent publication US20250145722A1 (TRUEBINDING, published 2025)

Key:
[1] = target: T1, human Galectin-3 (Gal3), full-length recombinant (human, UniProt P17931 2-250); experiment: ELISA: Gal3 coated at 2 or 3 µg/ml, protein at 2 or 3 µg/ml, anti-human IgG-HRP, A450
T1 construct: treated here as one molecule; also called hGAL3; hGal3

[2] = target: T1, human Galectin-3 (Gal3), full-length …; experiment: blocking ELISA, Gal3 coated, VEGFR3-Fc, antibody 20 µg/ml
[3] = target: T1, human Galectin-3 (Gal3), full-length …; experiment: blocking ELISA, Gal3 coated, biotin-α-synuclein aggregates
[4] = target: T1, human Galectin-3 (Gal3), full-length …; experiment: blocking ELISA, Gal3 coated, biotin-Tau aggregates
[5] = target: T1, human Galectin-3 (Gal3), full-length …; experiment: blocking ELISA, Gal3 coated, PDGFR alpha-Fc, antibody 20 µg/ml
[6] = target: T1, human Galectin-3 (Gal3), full-length …; experiment: blocking ELISA, Gal3 coated, PDGFR beta-Fc, antibody 20 µg/ml
[7] = target: T1, human Galectin-3 (Gal3), full-length …; experiment: blocking ELISA, Gal3 coated, EGFR-Fc, antibody 20 µg/ml
[8] = target: T1, human Galectin-3 (Gal3), full-length …; experiment: blocking ELISA, Gal3 coated, TREM2-His
[9] = target: T1, human Galectin-3 (Gal3), full-length …; experiment: blocking ELISA, Gal3 coated, biotin-TLR4
[10] = target: T1, human Galectin-3 (Gal3), full-length …; experiment: blocking ELISA, Gal3 coated, biotin-APP695
[11] = target: T1, human Galectin-3 (Gal3), full-length …; experiment: blocking ELISA, Gal3 coated, biotin-Abeta42 peptide
[12] = target: T1, human Galectin-3 (Gal3), full-length …; experiment: ELISA: Gal3 coated, His-tagged TREM2 detected with anti-6xHis-HRP; concentrations of the bars not printed on the sheet
[13] = target: T1, human Galectin-3 (Gal3), full-length …; experiment: not stated. Exponent is printed without a minus sign; value taken as a negative power of ten because the column is a KD in M
[14] = target: T1, human Galectin-3 (Gal3), full-length …; experiment: blocking ELISA, Gal3 coated, biotin-Abeta42 oligomer
[15] = target: T1, human Galectin-3 (Gal3), full-length …; experiment: cell-based or functional assay
[16] = target: T1, human Galectin-3 (Gal3), full-length …; experiment: titration of the antibody on a panel of galectins, read as OD450; set-up not given, species of the galectins not given
[17] = target: T1, human Galectin-3 (Gal3), full-length …; experiment: blocking ELISA, Gal3 coated, biotin-TGFβR2
[18] = target: T1, human Galectin-3 (Gal3), full-length …; experiment: not stated (FIG. 50)
mouse Gal3 = mouse Gal3 (mouse, UniProt P16110 2-264, limits assumed); experiment: not stated (FIG. 50)
Sequence of mouse Gal3 (P16110 2-264 limits assumed): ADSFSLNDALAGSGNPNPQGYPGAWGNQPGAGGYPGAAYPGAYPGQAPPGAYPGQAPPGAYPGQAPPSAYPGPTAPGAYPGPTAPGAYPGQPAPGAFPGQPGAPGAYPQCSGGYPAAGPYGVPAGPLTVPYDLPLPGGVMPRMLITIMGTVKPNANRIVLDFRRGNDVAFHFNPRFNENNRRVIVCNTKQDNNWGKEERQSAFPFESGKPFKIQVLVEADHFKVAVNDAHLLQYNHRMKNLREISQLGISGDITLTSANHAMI

T1 sequence (P17931 2-250 limits assumed): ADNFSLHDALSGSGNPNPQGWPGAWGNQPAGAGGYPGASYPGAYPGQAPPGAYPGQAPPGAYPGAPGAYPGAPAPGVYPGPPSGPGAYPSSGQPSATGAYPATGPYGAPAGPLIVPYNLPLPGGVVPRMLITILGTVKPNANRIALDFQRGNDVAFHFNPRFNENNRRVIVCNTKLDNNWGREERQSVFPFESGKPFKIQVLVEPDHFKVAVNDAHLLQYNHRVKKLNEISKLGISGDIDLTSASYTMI

B1: recombinant human TNF sRI (R&D Systems, 372-RI/CF) (receptor, UniProt P19438 30-211, looked up)
chain: LVPHLGDREKRDSVCPQGKYIHPQNNSICCTKCHKGTYLYNDCPGPGQDTDCRECESGSFTASENHLRHCLSCSKCRKEMGQVEISSCTVDRDTVCGCRKNQYRHYWSENLFQCFNCSLCLNGTVHLSCQEKQNTVCTCHAGFFLRENECVSCSNCKKSLECTKLCLPQIENVKGTEDSGTT
notes: Detected with anti-human IgG
binding result [1]: binds

B2: 13G4.2F8 (antibody, human IgG4 S228P, kappa, V domains shown)
VH: QVQLQQPGAELVKPGASVKLSCKASGYTFTSYWMHWVKQRPGQGLEWIGMIHPNSGSTDYNEKFKNKATLNVDKSSSTAYIQLSSLTSEDSAVYYCTRWGIYYYARDYWGQGTTLTVSS
VL: DIVMTQSQKFMSTSVGERVSITCKASQNVGTNVAWYQQKAGQSLELLIYGASNRHTGVPDRFTGSGSGTDFTLTITNVQSEDMTNYFCEQYSNFPLTFGAGTKLELKR
% blocking of Gal3-VEGFR3 binding [2]: < 30%
% blocking of Gal3-α-synuclein aggregates binding [3]: < 50%
% blocking of Gal3-Tau aggregates binding [4]: < 50%
% blocking of Gal3-PDGFR alpha binding [5]: < 30%
% blocking of Gal3-PDGFR beta binding [6]: < 30%
% blocking of Gal3-EGFR binding [7]: < 30%

B3: 4G2.2G6 (antibody, human IgG4 S228P, kappa, V domains shown)
VH: QIQLVQSGPDLKKPGETVKISCKASGYTFTTYVMSWVKQAPGKDLKWMGWINTHSGVPTYADDFKGRFDFSLETSANTAFLQINNLKNEDTATYFCTRDGNDGDAMDNWGQGTSVTVSS
VL: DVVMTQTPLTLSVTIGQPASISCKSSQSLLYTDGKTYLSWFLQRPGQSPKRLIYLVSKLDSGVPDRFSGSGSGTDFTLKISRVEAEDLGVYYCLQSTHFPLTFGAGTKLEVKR
% blocking of Gal3-VEGFR3 binding [2]: < 30%

B4: 15G7.2A7 (antibody, human IgG4 S228P, kappa, V domains shown)
VH: EVQLQQSGPELVKPGASVKISCKASGYTFTDYYMNWVKQSHGKSLEWIGDINPNNGGTNYNQKFKGKATLTVDKSSSTAYMELRSLTSEDSAVYYCTSGYGFPYWGQGTLVTVSA
VL: DIQMNQSPSSLSASLGDTISITCRASQNINIWLSWYQQKPGNIPQLLIYKASNLHTGVPSRFSGSGSGTDFTLTISSLQPEDIATYYCLQGQSYPLTFGAGTKLVMKR
notes: also called 15FG7.2A7
% blocking of Gal3-α-synuclein aggregates binding [3]: > 90%
% blocking of Gal3-TREM2 binding [8]: > 90%
% blocking of Gal3-Tau aggregates binding [4]: > 90%
% blocking of Gal3-TLR4 binding [9]: > 90%
% blocking of Gal3-APP695 binding [10]: > 90%
% blocking of Gal3-Abeta42 peptide binding [11]: > 90%

B5: recombinant human TREM2 protein (Sino Biological, 11084-H08H) (receptor, UniProt Q9NZC2 19-174, looked up)
chain: HNTTVFQGVAGQSLQVSCPYDSMKHWGRRKAWCRQLGEKGPCQRVVSTHNLWLLSFLRRWNGSTAITDDTLGGTLTITLRNLQPHDAGLYQCQSLHGSEADTLRKVLVEVLADPLDHRDAGDLWFPGESESFEDAHVEHSISRSLLEGEIPFPPTS
notes: Detected with anti-6x His tag antibody, so His-tagged; tag not described
binding result [12]: binds

B6: 24D12.2H9 (antibody, human IgG4 S228P, kappa, V domains shown)
VH: QVQLKQSGPGLVQPSQSLSITCTVSGFSLTSYGVHWVRQAPGKGLEWLGVIWSGGSTDYNAAFMSRLSISKDNSKSQVFFKMNSLQADDTAIYYCAKSPDGYDVAWFGYWGQGTLVTVSA
VL: DIVMTQSHKFMSTSVGDRVSITCKASQDVRTAVAWYQQKPGQSPKLLIYWASTRHTGVPDRFTGSGSGTDFTLTLSNVQSEDLADYFCQQYSSYPWTFGGGTKLEIKR
% blocking of Gal3-VEGFR3 binding [2]: < 30%
% blocking of Gal3-PDGFR alpha binding [5]: < 30%
% blocking of Gal3-PDGFR beta binding [6]: < 30%
% blocking of Gal3-EGFR binding [7]: < 30%

B7: F847C.11B1 (antibody, human IgG4 S228P, kappa, V domains shown)
VH: EVQLQQSGPELVKPGASVKISCKASGNTFTDHNMHWVKQSHGKSLEWIGYIYPYNGGTGYNQKFKSKATLTVDNSSSTVYMELRSLTSEDSAVYYCARGEYDYLAWFAYWGQGTLVTVSA
VL: EIVLTQSPASLSVTTGEKVTIRCITSIDIDDDMNWYQQKPGEPPKLLISEGNTLRPGVPSRFSSSGYGTDFVFTIENTLSEDVADYYCLQSDNKPLTFGAGTKLELKR
notes: also called 847.11B1
Kd [13]: 4.29 nM
% blocking of Gal3-α-synuclein aggregates binding [3]: < 50%
% blocking of Gal3-TREM2 binding [8]: < 47%
% blocking of Gal3-Tau aggregates binding [4]: < 50%
% blocking of Gal3-Abeta42 oligomer binding [14]: < 26%
% blocking of Gal3-Abeta42 peptide binding [11]: < 46%

B8: mTB001 (antibody, mouse IgG2a, V domains shown)
VH: QIQLVQSGPELKKPGETVKISCKASGYTFTNYGMNWVKQAPGKGLKWMGWINTNTGEPTYVEEFKGRFAFSLETSASTAYLQINNLKNEDTATYFCAPYDNFFAYWGQGTLVTVSA
VL: DIVITQDELSNPVTSGESVSISCRSSKSLLYKDGKTYLNWFLQRPGQSPQLLIYLMSTHASGVSDRFSGSGSGTDFTLEISRVKAEDVGVYYCQQLVDYPLTFGAGTKLELKR
notes: also called mIMT001; murine IMT001
decrease in TGFβ induction of ColA1 mRNA in LX2 cells (qRT-PCR) [15]: 63%
% blocking of Gal3-PDGFR alpha binding [5]: > 70%
% blocking of Gal3-PDGFR beta binding [6]: > 70%
% blocking of Gal3-EGFR binding [7]: > 70%

B9: TB001 (antibody, IgG4, V domains shown)
VH: QVQLVQSGSELKKPGASVKVSCKASGYTFTNYGMNWVRQAPGQGLKWMGWINTNTGEPTYVEEFTGRFVFSLETSVSTAYLQISSLKAEDTAVYFCAPYDNFFAYWGQGTTVTVSS
VL: DIVLTQSPLSLPVTPGEPASISCRSSKSLLYKDGKTYLNWFLQKPGQSPQLLIYLMSTHASGVPDRFSGSGSGTDFTLKISRVEAEDVGVYYCQQLVDYPLTFGGGTKLEIKR
notes: also called IMT001; IMT001-4
% blocking of Gal3-TREM2 binding [8]: > 90%
IC50 of TGF-β-induced pro-collagen production in LX-2 cells [15]: 0.25 µg/mL
EC50 (read off the curve) [16]: ~0.007 µg/mL
IC50 [17]: 12.8 nM
% blocking of Gal3-TLR4 binding [9]: > 90%
% blocking of Gal3-APP695 binding [10]: > 90%
Kd [18]: 3.6 nM
Kd (mouse Gal3): 2.3 nM
% blocking of Gal3-Abeta42 oligomer binding [14]: > 90%
IC50 [14]: 3.17 nM
% blocking of Gal3-Abeta42 peptide binding [11]: > 90%

B10: TB006 (antibody, V domains shown)
VH: QVQLVQSGAEVKKPGASVKVSCKASGYSFTNYYMHWVRQAPGQRLEWMGWIYPGSGNTNYNEKFQGRVTITADTSASTAYMELSSLRSEDTAVYYCSTAPGGFDVWGQGTTVTVSS
VL: DIVMTQTPLSLSVTPGQPASISCKSSKSLLHSDGITYLYWYLQKPGQSPQLLIYRMSNLASGVPDRFSGSGSGTDFTLKISRVEAEDVGVYYCAQMLEFPLTFGQGTKLEIKR
notes: Humanized variant derived from murine 4A11.2B5; also called 4A11.H3L1; IMT006
% blocking of Gal3-TREM2 binding [8]: > 90%
IC50 of TGF-β-induced pro-collagen production in LX-2 cells [15]: 0.23 µg/mL
% blocking of Gal3-Tau aggregates binding [4]: > 90%
IC50 [17]: 11.5 nM
% blocking of Gal3-TLR4 binding [9]: > 90%
% blocking of Gal3-APP695 binding [10]: > 90%
Kd [18]: 8.9 nM
Kd (mouse Gal3): 40000 nM
% blocking of Gal3-Abeta42 oligomer binding [14]: > 90%
IC50 [14]: 2.38 nM
% blocking of Gal3-Abeta42 peptide binding [11]: > 90%

B11: F847C.10B9 (antibody, human IgG4 S228P, kappa)
heavy: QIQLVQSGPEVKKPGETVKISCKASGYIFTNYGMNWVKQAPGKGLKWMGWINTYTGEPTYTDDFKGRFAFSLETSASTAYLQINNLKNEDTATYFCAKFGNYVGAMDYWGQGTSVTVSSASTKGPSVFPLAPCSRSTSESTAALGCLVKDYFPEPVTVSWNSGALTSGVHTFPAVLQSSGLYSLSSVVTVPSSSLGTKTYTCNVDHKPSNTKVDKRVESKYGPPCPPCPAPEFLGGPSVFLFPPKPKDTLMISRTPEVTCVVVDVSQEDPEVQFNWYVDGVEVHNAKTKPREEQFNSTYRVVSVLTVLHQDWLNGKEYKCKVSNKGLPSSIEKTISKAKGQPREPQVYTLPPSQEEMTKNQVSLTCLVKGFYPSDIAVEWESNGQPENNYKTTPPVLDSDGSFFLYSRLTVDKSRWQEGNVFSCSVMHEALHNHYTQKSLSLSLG
light: DIRMTQSPSSLSASLGDTITITCHASQNINVWLSWYQQKPGNIPKLLIYKASNLHTGVPSRFSGSGSGTGFTLTISSLQPEDIATYYCQQGQSYPYTFGGGTKLELKRTVAAPSVFIFPPSDEQLKSGTASVVCLLNNFYPREAKVQWKVDNALQSGNSQESVTEQDSKDSTYSLSSTLTLSKADYEKHKVYACEVTHQGLSSPVTKSFNRGEC
notes: also called 847.10B9
Kd [13]: 13600 nM
% blocking of Gal3-α-synuclein aggregates binding [3]: > 90%
% blocking of Gal3-Tau aggregates binding [4]: > 90%

B12: F847C.12F12 (antibody, V domains shown)
VH: QIQLVQSGPELKKPGETVKISCKASGYTFTNYGMNWVKQAPGKGLKWMGWINTYTGEPTYVDDFKGRFAFSLETSASTAYLRINNLKNEDTATYFCAKFGNYVGAMDYWGQGTSVTVSS
VL: DIQVIQSPSSLSASLGDTITITCHASQNINVWLSWYQQKPGNIPKLLIYKASNLHTGVPSRFSGSGSGTGFTLTISSLQPEDIATYYCQQGQSYPYTFGGGTKLELKR
notes: also called 84712F12
Kd [13]: 19.2 nM
% blocking of Gal3-α-synuclein aggregates binding [3]: > 90%
% blocking of Gal3-Tau aggregates binding [4]: > 90%
